Measured values taken from doi:10.1101/089938v2.

Experiments:
[1] = substrate: C[C@@H](N)C(=O)O; test: racemization assay, HPLC of derivatized L- and D-Ala; type: biochemical, Streptomyces coelicolor; details: D- to L-Ala direction
[2] = substrate: C[C@H](N)C(=O)O; test: as above; type: biochemical, Streptomyces coelicolor; details: L- to D-Ala direction

B1: AlrSco (alanine racemase from Streptomyces coelicolor A3(2), SCO4745) (Streptomyces coelicolor A3(2)) (protein)
chain: MSETTARRDADAVLRARAEIDLAALRANVRALRERAPGAALMAVVKADAYGHGAIPCARAAVAAGATWLGTATPQEALALRAAEPGLPDDVRIMCWLWTPGGPWREAVEARLDVSVSAMWAMEEVTGAARAAGVPARVQLKADTGLGRGGCQPGADWERLVGAALRAEEEGLLRVTGLWSHFACADEPGHPSIAAQLTRFREMTAYAEQRGLRPEVRHIANSPATLTLPDAHFDLVRPGIAMYGVSPSPEIGTPADFGLRPVMTLAASLALVKQVPGGHGVSYGHHYTTPGETTLGLVPLGYADGIPRHASSSGPVLVDGKWRTVAGRIAMDQFVVDLGGDRPEPGAEAVLFGPGDRGEPTAEDWAQAAGTIAYEIVTRIGSRVPRVYVNE
Km [1]: 8.9 mM | Km [2]: 6.3 mM
